Data published in US20250041377A1, “PHARMACEUTICAL USE” (ENLITISA (SHANGHAI) PHARMACEUTICAL CO., LTD., priority 2018, published 2025).

What was measured:
[1] = tested on: full thickness skin wound on the back; assay: Acute wound model, remaining wound area; assay type: in vivo, C57BL/6 mice; conditions: ± SD
Description: 6-8 weeks old male C57BL/6 mice were supplied by Changzhou Cvens Experimental Animal Co. Ltd (Changzhou, Jiangsu Province, China). Prior to any experiments being conducted, mice were housed under standardized conditions (at a constant temperature of 22±2° C., with alternating 12 hour periods of light and darkness), and were fed on a standard mouse diet with water, for about a week.
General anesthesia was induced using intraperitoneal 3% chloral hydrate (1 mL/10 g of body weight). The hair on the back was shaved by a baby hair shaver and depilated with cream. The skin area was wiped and sterilized with 75% alcohol twice.
An EMS skin biopsy punch (Electron Microscopy Sciences, P.O. Box 550, 1560 Industry Road, Hatfield, PA, USA) with a 18 mm diameter was used to make a round wound on the back. The full thickness of skin was removed and the depth of the wound reached the fascia. Wounds were left open without a suture.
(§1) The model group was given same amount of normal saline. There were 8 mice in each group.
Recombinant Human Epidermal Growth Factor (rhEGF, Shanghai Haohai Biological Technology Co. Ltd, 23/F, Shanghai, China) was purchased and prepared according to the manufacturer's instructions. The lyophilized rhEGF powder (100000 IU/vial) was dissolved in 20 mL of normal saline to make a solution with a concentration of 5000 IU/mL. The working dose of rhEGF for this experiment was 1285 IU/wound.
For this experiment, Compound A was also obtained from GL Biochem (Shanghai) Ltd. The peptide powders were stored at −20° C. and dissolved in saline at concentrations of 61.8 μg/mL (Compound A), and 61 μg/mL (Compound B). 50 μL of the solutions were applied onto the wound surfaces.
Wounds were dressed with gauze and transparent dresser after drug administration. Photographs were taken for each wound every other day from Day 0. Photos were scanned into a computer, and wound areas calculated using ImageJ image analysis software (National Institutes of Health, […]).
The unhealed wound area was expressed as a percentage of the original wound area: […]
where A0 and At refer to the initial area at Day 0 and the wound area at the date of measurement (time t), respectively.

[2] = tested on: Hyp, VEGF and TGF-β1 in wound tissue; assay: Acute wound model, ELISA of wound tissue; assay type: in vivo, C57BL/6 mice; conditions: for wound Hyp content (Mean): indicator of collagen regeneration; for TGF-β1 content (Mean): wound tissue
Source text: as §1
Samples were taken at Day 4 and Day 7 post-wound infliction. The mice were sacrificed and the wound tissue taken by the same biopsy punch used to create the wound. Then 5 mm of tissue was cut off from the center of the sample and was preserved in 10% neutral buffered formalin (Nanchang Rain Dew Experimental Equipment Co., Ltd., Nanchang, Hubei Province, China), and analyzed by histological embedding (HE) in paraffin wax, sectioning and staining.
The rest of the samples were stored at −80° C. for further analysis. Tissue was cut into small pieces and liquid nitrogen was added to increase brittleness. 9 mL of normal saline was added to 1 g of tissue, which was then ground using a Tissuelyser (Shanghai Jingxin Industrial Development Co., Ltd., Shanghai, China) at 55 Hz for 60 seconds, followed by centrifuging at 8000 rpm for 10 minutes at 4° C.
The supernatant was collected, and the extracted protein was used for ELISA analysis using standard ELISA test kits and an ELISA reader (SH-1000 Hitachi, Japan). Vascular endothelial growth factor (VEGF), transforming growth factor beta 1 (TGF-β1) and hydroxyproline (Hyp) were assayed. The ELISA kits were purchased from Beijing 4A Biotech Co., Ltd. (Beijing, China).

B1: rhEGF: Recombinant Human Epidermal Growth Factor, lyophilized powder dissolved in normal saline (protein, UniProt P01133 23-1207, looked up)
Pro-epidermal growth factor: PQHWSCPEGTLAGNGNSTCVGPAPFLIFSHGNSIFRIDTEGTNYEQLVVDAGVSVIMDFHYNEKRIYWVDLERQLLQRVFLNGSRQERVCNIEKNVSGMAINWINEEVIWSNQQEGIITVTDMKGNNSHILLSALKYPANVAVDPVERFIFWSSEVAGSLYRADLDGVGVKALLETSEKITAVSLDVLDKRLFWIQYNREGSNSLICSCDYDGGSVHISKHPTQHNLFAMSLFGDRIFYSTWKMKTIWIANKHTGKDMVRINLHSSFVPLGELKVVHPLAQPKAEDDTWEPEQKLCKLRKGNCSSTVCGQDLQSHLCMCAEGYALSRDRKYCEDVNECAFWNHGCTLGCKNTPGSYYCTCPVGFVLLPDGKRCHQLVSCPRNVSECSHDCVLTSEGPLCFCPEGSVLERDGKTCSGCSSPDNGGCSQLCVPLSPVSWECDCFPGYDLQLDEKSCAASGPQPFLLFANSQDIRHMHFDGTDYGTLLSQQMGMVYALDHDPVENKIYFAHTALKWIERANMDGSQRERLIEEGVDVPEGLAVDWIGRRFYWTDRGKSLIGRSDLNGKRSKIITKENISQPRGIAVHPMAKRLFWTDTGINPRIESSSLQGLGRLVIASSDLIWPSGITIDFLTDKLYWCDAKQSVIEMANLDGSKRRRLTQNDVGHPFAVAVFEDYVWFSDWAMPSVMRVNKRTGKDRVRLQGSMLKPSSLVVVHPLAKPGADPCLYQNGGCEHICKKRLGTAWCSCREGFMKASDGKTCLALDGHQLLAGGEVDLKNQVTPLDILSKTRVSEDNITESQHMLVAEIMVSDQDDCAPVGCSMYARCISEGEDATCQCLKGFAGDGKLCSDIDECEMGVPVCPPASSKCINTEGGYVCRCSEGYQGDGIHCLDIDECQLGEHSCGENASCTNTEGGYTCMCAGRLSEPGLICPDSTPPPHLREDDHHYSVRNSDSECPLSHDGYCLHDGVCMYIEALDKYACNCVVGYIGERCQYRDLKWWELRHAGHGQQQKVIVVAVCVVVLVMLLLLSLWGAHYYRTQKLLSKNPKNPYEESSRDVRSRRPADTEDGMSSCPQPWFVVIKEHQDLKNGGQPVAGEDGQAADGSMQPTSWRQEPQLCGMGTEQGCWIPVSSDKGSCPQVMERSFHMPSYGTQTLEGGVEKPHSLLSANPLWQQRALDPPHQMELTQ
modifications: Pro-epidermal growth factor
notes: Recombinant Human Epidermal Growth Factor, lyophilized powder dissolved in normal saline
ratio of remaining wound area of initial wound ([1]; Day 0, topical 50 μL/wound once daily, rhEGF 1285 IU/mouse, Compound A 3.09 μg/mouse, Compound B 3.05 μg/mouse): 82.0 ± 2.2% | ratio of remaining wound area of initial wound ([1]; Day 1, topical once daily): 100 ± 9.9% | ratio of remaining wound area of initial wound ([1]; Day 2, topical once daily): 94.1 ± 4.3% | ratio of remaining wound area of initial wound ([1]; Day 3, topical once daily): 78.6 ± 7.3% | ratio of remaining wound area of initial wound ([1]; Day 4, topical once daily): 61.5 ± 3.3% | ratio of remaining wound area of initial wound ([1]; Day 5, topical once daily): 53.0 ± 1.0% | ratio of remaining wound area of initial wound ([1]; Day 6, topical once daily): 47.2 ± 5.8% | wound Hyp content (Mean) ([2]; Day 4): 1.808 µg/mg | TGF-β1 content (Mean) ([2]; Day 4): 18190.6 pg/g | wound Hyp content (Mean) ([2]; Day 7): 2.679 µg/mg | TGF-β1 content (Mean) ([2]; Day 7): 15443.1 pg/g
